Consider eight molecules from patent publication US20210301021A1 (NANJING GENSCRIPT BIOTECH, published 2021).

The target in assay [1] is T1, CTLA4/His (human, UniProt P16410 36-161).
T1 construct: not shown: His tag
T1 sequence (looked up): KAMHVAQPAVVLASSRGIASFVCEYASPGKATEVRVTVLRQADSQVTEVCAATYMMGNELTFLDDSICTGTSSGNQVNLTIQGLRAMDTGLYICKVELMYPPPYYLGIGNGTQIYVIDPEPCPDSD
As to the kind of experiment: SPR (Biacore), after AAPH oxidation, analyte CTLA4/His.

The target of assay [2] is T1, CTLA4/His. As to the kind of experiment: SPR, Biacore 8K, antibody captured on the chip, antigen as analyte, 1:1 binding model.
The target of assay [3] is T1, CTLA4/His. The assay is described as follows: SPR (Biacore), untreated control of the oxidation pressure test, analyte CTLA4/His.
In assay [4] the target is T2, CTLA-4 on the functional cells of the Promega anti-CTLA-4 blocking assay kit (UniProt P16410 36-223, limits assumed).
T2 sequence (looked up): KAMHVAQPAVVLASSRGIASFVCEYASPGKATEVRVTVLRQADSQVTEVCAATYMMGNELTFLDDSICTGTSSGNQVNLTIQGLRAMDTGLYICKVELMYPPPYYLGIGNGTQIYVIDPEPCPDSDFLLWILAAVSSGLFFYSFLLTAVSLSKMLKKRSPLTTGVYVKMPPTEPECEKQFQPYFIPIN
The assay is described as follows: cell-based or functional assay.

For assay [5], the target named is T3, human CTLA4-Fc recombinant protein (human, UniProt P16410 36-161).
T3 construct: not shown: Fc part
T3 sequence (looked up): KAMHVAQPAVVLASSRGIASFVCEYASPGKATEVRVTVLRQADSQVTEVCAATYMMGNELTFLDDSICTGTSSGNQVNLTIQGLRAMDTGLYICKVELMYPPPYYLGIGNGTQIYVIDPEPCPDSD
The assay is described as follows: kinetics of the prokaryotic expression product, analyte CTLA4/Fc, 1:1 binding model.

In assay [6] the target is T3, human CTLA4-Fc recombinant protein. The assay is described as follows: kinetics of the prokaryotic expression product, analyte CTLA4/Fc, 1:1 binding model; prokaryotic expression product, analyte CTLA4/Fc (Table 2).

B1: Chimeric antibody AAPH (chimeric antibody after the oxidation pressure test) (antibody, V domains shown)
VH: QVHLQQSGDVLVKPGASVNLSCKASGYTFTSYWINWIKQRPGQGLEWIGRIAPGSGTTYYNEMFTGKATLTVVTSSTTAYIQLSSLSFEDSAVYFCARGDYFDYWDQGTTLTVSS
VL: QIVLTQSPAIMSASPGGKVTITCSASKSVSYIHWFQQKPGTSPKLLIYDTSTLASGVPPRFSGSGSGPSYSLTISRMEAEDAATYYCQQRTTYPLTFGGGTKLEVR
modifications: Met 63 oxidised in 62.144% of the sample (AAPH, 40 C, 24 h)
notes: Same protein as the chimeric antibody, treated with AAPH; also called Chimeric antibody AAPH-24 h
In assay [1], B1 yielded a Kd of 48.7 pM, a koff of 2.78e-05 s⁻¹ and an on-rate (kon) of 570000 M⁻¹ s⁻¹.

B2: AH01674 humanized anti-human CTLA4 monoclonal antibody (human IgG1/kappa) (antibody, V domains shown)
VH: QVQLVQSGAEVKKPGASVKVSCKASGYTFTSYWINWVRQAPGQGLEWMGRIAPGSGTTYYNEMFTGRVTMTRDTSTSTAYMELSSLRSEDTAVYYCARGDYFDYWGQGTMVTVSS
VL: DIQLTQSPSFLSASVGDRVTITCSASKSVSYIHWYQQKPGKAPKLLIYDTSTLASGVPPRFSGSGSGPEFTLTISSLQPEDFATYYCQQRTTYPLTFGQGTKLEIK
notes: also called AH1674
Take B2: in assay [2], the equilibrium dissociation constant (Kd) was not above 14.2 pM, the dissociation rate constant (koff) was not above 1e-05 s⁻¹ and the on-rate constant (kon) was 705000 M⁻¹ s⁻¹. Further, in assay [3], the affinity, expressed as Kd, was 39.5 pM; the koff is 2.98e-05 s⁻¹; the kon came out at 753000 M⁻¹ s⁻¹. Besides, the “EC50 (µg/ml), luciferase reporter, Promega anti-CTLA-4 blocking assay (CD80/CD86 aAPC/Raji cells with functional cells expressing CTLA-4)” value in assay [4] was found to be 1.11 µg/mL.

B3: AH01674 AAPH (AH01674 after the oxidation pressure test) (antibody, V domains shown)
VH: QVQLVQSGAEVKKPGASVKVSCKASGYTFTSYWINWVRQAPGQGLEWMGRIAPGSGTTYYNEMFTGRVTMTRDTSTSTAYMELSSLRSEDTAVYYCARGDYFDYWGQGTMVTVSS
VL: DIQLTQSPSFLSASVGDRVTITCSASKSVSYIHWYQQKPGKAPKLLIYDTSTLASGVPPRFSGSGSGPEFTLTISSLQPEDFATYYCQQRTTYPLTFGQGTKLEIK
modifications: Met 63 oxidised in 75.616% of the sample (AAPH, 40 C, 24 h)
notes: Human IgG1/kappa, treated with AAPH; also called AH01674 AAPH-24 h
Consider B3, for which, in assay [1], the Kd came out at 30.5 pM, the koff came to 2.19e-05 s⁻¹ and the kon came to 719000 M⁻¹ s⁻¹.

B4: AH01674 (prokaryotic expression antibody product, CBM library) (Fab, V domains shown)
VH: QVQLVQSGAEVKKPGASVKVSCKASGYTFTSYWINWVRQAPGQGLEWMGRIAPGSGTTYYNEMFTGRVTMTRDTSTSTAYMELSSLRSEDTAVYYCARGDYFDYWGQGTMVTVSS
VL: DIQLTQSPSFLSASVGDRVTITCSASKSVSYIHWYQQKPGKAPKLLIYDTSTLASGVPPRFSGSGSGPEFTLTISSLQPEDFATYYCQQRTTYPLTFGQGTKLEIK
notes: Prokaryotic expression product from Phage-Fab / FASEBA-Fab plasmids
Consider B4, for which the Kd in assay [5] came to 15.4 pM.

B5: AH01696 humanized anti-human CTLA4 monoclonal antibody (human IgG1/kappa) (antibody, V domains shown)
VH: VQLVQSGAEVVKPGASVKVSCKASGYTFTSYWINWIRQAPGQGLEWIGRIAPGSGTTYYNEMFTGRVTLTRDTSTSTAYMELSSLRSEDTAVYYCARGDYFDYWDQGTMVTVSS
VL: DIQLTQSPSFLSASVGDRVTITCSASKSVSYIHWFQQKPGKAPKLLIYDTSTLASGVPSRFSGSGSGTEYTLTISSLQPEDFATYYCQQRTTYPLTFGQGTKLEIK
Consider B5, for which, in assay [2], the Kd was 42.9 pM, the koff stood at 2.77e-05 s⁻¹ and the on-rate (kon) turned out to be 646000 M⁻¹ s⁻¹.

B6: AH01696 (prokaryotic expression antibody product, 5BM library) (Fab, V domains shown)
VH: VQLVQSGAEVVKPGASVKVSCKASGYTFTSYWINWIRQAPGQGLEWIGRIAPGSGTTYYNEMFTGRVTLTRDTSTSTAYMELSSLRSEDTAVYYCARGDYFDYWDQGTMVTVSS
VL: DIQLTQSPSFLSASVGDRVTITCSASKSVSYIHWFQQKPGKAPKLLIYDTSTLASGVPSRFSGSGSGTEYTLTISSLQPEDFATYYCQQRTTYPLTFGQGTKLEIK
notes: as for B4
Take B6: the Kd in assay [5] came to 0.00373 pM.

B7: AH01704 (prokaryotic expression antibody product, 5BM library) (Fab, V domains shown)
VH: QVQLVQSGAEVVKPGASVKVSCKASGYTFTSYWINWVKQAPGQGLEWMGRIAPGSGTTYYNEMFTGRVTLTRDTSTSTAYMELSSLRSEDTAVYFCARGDYFDYWGQGTMVTVSS
VL: DIQLTQSPSFLSASVGDRVTITCSASKSVSYIHWYQQKPGKAPKLLIYDTSTLASGVPSRFSGSGSGTEYTLTISSLQPEDFATYYCQQRTTYPLTFGQGTKLEIK
notes: as for B4
For the molecule B7, the Kd in assay [5] was found to be 0.019 pM.

B8: AH01679 (prokaryotic expression antibody product, 5BM library) (Fab, V domains shown)
VH: QVQLVQSGAEVVKPGASVKLSCKASGYTFTSYWINWVRQAPGQGLEWIGRIAPGSGTTYYNEMFTGRVTMTRDTSTSTVYMELSSLRSEDTAVYYCARGDYFDYWGQGTMVTVSS
VL: DIQLTQSPSFLSASVGDRVTITCSASKSVSYIHWYQQKPGKAPKLLIYDTSTLASGVPSRFSGSGSGTEFTLTISSLQPEDFATYYCQQRTTYPLTFGQGTKLEIK
notes: as for B4
Take B8: the off-rate constant (koff) in assay [6] is less than 1e-05 s⁻¹. Moreover, the dissociation constant (Kd) in assay [5] was determined as 0.0431 pM.
